Measured values reported in paper PMC6078970, “Nonequilibrium self-assembly dynamics of icosahedral viral capsids packaging genome or polyelectrolyte” (Nature Communications, 2018).

Target: the molecule itself
Assay: SAXS (static); purified subunits alone, pH 7.5, ionic strength 0.5 M; radius of gyration 33 Å

B1: cowpea chlorotic mottle virus (CCMV) capsid protein, dimeric subunit (natural protein)
chain: RVVQPVIVEPIASGQGKAIKAWTGYSVSKWTASCAAAEAKVTSAITISLPNELSSERNKQLKVGRVLLWLGLLPSVSGTVKSCVTETQTTAAASFQVALAVADNSKDVVAAMYPEAFKGITLEQLTADLTIYLYSSAALTEGDVIVHLEVEHVRPTFDDSFTPVY
notes: capsid (coat) protein of cowpea chlorotic mottle virus, extracted from purified virions; 90 dimers make the T = 3 capsid; Protein as it stands in native virions; no tag; also called CCMV subunits; subunits; source: CCMV grown in blackeye cowpea leaves; capsid proteins extracted from purified virions (dialysis against 0.5 M CaCl2, centrifugation at 150,000 x g)
B1 was tested. Which “stoichiometry N” value did it give?
The value was 2.
